Reference: PMC5906480, “Tau Antibody Structure Reveals a Molecular Switch Defining a Pathological Conformation of the Tau Protein” (Scientific Reports, 2018)

Columns and labels:
[1] = tested on: tau in brain fractions of rTg4510 mice overexpressing human tau with P301L mutation; assay: Western and dot blot, rTg4510 mouse brain; format: binding, human tau in rTg4510 mouse; conditions: C5.2 1 µg/mL overnight 4 °C, 24 weeks old mice
Description: (§1) rTg4510, tTA and non-Tg littermate F1 mice were bred at Taconic, Denmark. Mice expressing the tTA activator transgenes were maintained on 129S6 background strain (Taconic) and mutant tau responder mice were maintained in the FVB/NCrl background strain (Taconic). Mice were screened by PCR using the following primer pairs [NT] and [NT] for the tTA activator transgene and [NT] and [NT] for the mutant tau responder transgene. rTg4510, tTA and non-Tg littermates were group-housed (5 animals/cage) and received water and food ad libitum (Brogaarden, Denmark) as well as environmental enrichment. The light/dark cycle was 12 hours; room temperature was 21 ± 2 °C and a relative humidity of 55% ± 5%. All animal experiments were performed in accordance with the European Communities Council Directive #86/609, the directives of the Danish National Committee on Animal Research Ethics, and Danish legislation on experimental animals (license no. 2014-15-0201-00339). Mice were euthanized by cervical dislocation. Brains were quickly removed, weighed and divided sagittally down the midline to yield two hemispheres. […] Tau and pTau levels were assessed in the samples using 1 μg/mL C5.2 overnight at 4 °C. A secondary fluorophore conjugated IgG antibody was used (IRDye 680 Goat anti-mouse, LICOR biosciences) and the signal was quantified using Odyssey CLx and Image studio software (LI-COR biosciences). […]

[2] = target: FITC-conjugated tau peptide pS396/pS404; assay: Fluorescence polarization direct binding, pS396/pS404 peptide; conditions: restated in Discussion; fluorescence polarization, Fab C5.2
Method: (§2) FITC-labeled peptides used in fluorescence polarization experiments were synthesized by Biomatik (Cambridge, ON, Canada). Fab C5.2 affinity was determined using a fluorescence polarization-based direct binding assay with fluorescein isothiocyanate (FITC)-conjugated peptides (Table 1). The FITC-peptide concentration was kept constant at 300 nM while Fab C5.2 was serially diluted from 675 nM to 0.08 nM. Data was collected at 25 °C using excitation and emission wavelengths of 485 nm and 535 nm, respectively. Each experiment was done in a single 96-well plate and calculated in triplicate (buffer: 50 mM Tris, 100 mM NaCl, 0.1% pluronic F-127). The experiments were performed with a DTX 880 Multimode Detector (Beckman Coulter, Jersey City, NJ). Fluorescence data was reduced using multimode detection software and KD values were calculated in GraphPad Prism 7.0 using a nonlinear regression model.
(§3) To accurately measure the C5.2 binding affinity, we performed fluorescence polarization experiments to determine dissociation constants (KD), using the Fab C5.2 and four differentially phosphorylated FITC-conjugated peptides (Table 1). The peptide concentration was kept constant while that of Fab C5.2 was serially diluted from 675 nM to 0.08 nM (Fig. 1d). […] In comparison with a […] IgG molecule, each Fab fragment contains a single binding site so the KD was calculated using a nonlinear model.

[3] = tested on: normal tau in the soluble tau fraction (S1) from non-transgenic littermates; assay: Western and dot blot, non-transgenic littermate brain; format: binding, mouse; conditions: C5.2 1 µg/mL overnight 4 °C, 24 weeks old non-tg mice
Description: as §1

[4] = tested on: FITC-conjugated tau peptide pS396; assay: Fluorescence polarization direct binding, pS396 peptide
Method: as §2, §3

[5] = tested on: tau pathology in Alzheimer's disease brain sections (prefrontal cortex); assay: Immunohistochemistry, Alzheimer's disease brain sections; format: binding, human; conditions: C5.2 at 0.1 to 1 μg/mL, overnight 4 °C, paraffin sections
Method: Paraffin sections of 4 μm thickness were prepared from blocks of PFA-fixed prefrontal cortex from AD donors and non-demented controls obtained from Tissue Solutions (Glasgow, UK). The sections were deparaffinised, rehydrated and subjected to antigen retrieval by boiling in 10 mM citrate buffer pH 6 for 5 min. Endogenous peroxidase was quenched for 10 min with 1% H2O2 in PBS. Sections were then incubated 20 min in blocking buffer followed by overnight incubation in a humidified chamber at 4 °C with primary antibody at 0.1 to 1 μg/mL in incubation buffer. Between each incubation step, the sections were washed 3 × 10 min in wash buffer. Subsequently, the sections were incubated at room temperature in the following solutions; 60 min with a biotinylated secondary Ab diluted 1:200 in wash buffer; 60 min in ABC; 20 min in DAB. Finally, the sections were counterstained with hematoxylin and coverslipped.

B1: C5.2: novel mouse monoclonal antibody that targets the pS396 tau epitope region (antibody, V domains shown)
VH: QVQLQQSDAELVKPGASVKISCKASGYTFTDRTIHWVKQRPEQGLEWIGYIYPGDDSTKYNDMFKAKATLTADKSSNTAYMQLNSLTSDDSAVYFCARRGTMDYWGQGTSVTVSS
VL: DVQMIQSPSSLSASLGDIVTMTCQASQDTSINLNWFQQKPGKAPKLLIYGASNLEDGVPSRFSGSRYGTDFTLTISSLEDEDMATYFCLQHTYLPFTFGSGTKLEIK
- Binding to insoluble tau fraction (P3) ([1]; sarkosyl-insoluble P3): binds predominantly to an insoluble tau fraction (P3)
- Reactivity to soluble tau fraction (S1) ([1]; soluble S1): also has reactivity to a soluble tau fraction (S1)
- Kd [2]: 15.4 nM
- Detection of normal tau (S1) [3]: not detected
- Phosphorylation state-specificity ([4]; Discussion, ELISA and fluorescence polarization): phosphorylation state-specific with nanomolar affinity
- Phospho-specificity ([4]; both experiments (ELISA and fluorescence polarization)): phospho-specificity for pS396
- Kd ([4]; restated in Discussion, fluorescence polarization, Fab C5.2): 14.9 nM
- Binding in AD brain sections [5]: binds strongly to tangles, pre-tangles and dystrophic neurites
